Assay results as given in publication doi:10.1101/2020.10.28.358481.

Target: nsp12 (RdRp catalytic subunit);nsp8;nsp7 (SARS-CoV-2;SARS-CoV-2;SARS-CoV-2, UniProt P0DTD1;P0DTD1;P0DTD1 4393-5324;3943-4140;3860-3942, ||)
Test: cryo-EM

B1: scaffold 1 (RMP at -3) (structured_RNA)
RNA 1: UUUUCAUGCAUCGCGUAGGCUCAUACCGUAUUGAGACCUUUUGGUCUCAAUACGGUA
RNA 2: UGAGCCUACGCGAUG
modifications: strand 2 position 13 (written A) is remdesivir monophosphate (RMP, 1'-cyano)
  binding result: binds

B2: scaffold 2 (RMP at -4) (structured_RNA)
RNA 1: UUUUCAUGCACUGCGUAGGCUCAUACCGUAUUGAGACCUUUUGGUCUCAAUACGGUA
RNA 2: UGAGCCUACGCAGUG
modifications: strand 2 position 12 (written A) is remdesivir monophosphate (RMP, 1'-cyano); oligo R-4
  binding result: binds
